Results from patent US20240382677A1 (Regeneron, published 2024).

Key:
[1] = target: T1, recombinant human PD-1 expressed with a C-terminal myc-myc-hexahistidine tag (human); assay: SPR Biacore, mAb captured, 37 C
T1 construct: monomeric reagent; also called hPD-1-MMH; human PD-1-MMH

[2] = target: T2, human PD-1 dimer (human PD-1-mFc or human PD-1-hFc) (human, Fc-mediated homodimer; one copy of the chain is given.); assay: SPR Biacore, mAb captured, 37 C
T2 construct: also called hPD-1-mFc; hPD1-hFc; not shown: The C-terminal Fc tag
T2 sequence (chain, as listed by the source limits assumed): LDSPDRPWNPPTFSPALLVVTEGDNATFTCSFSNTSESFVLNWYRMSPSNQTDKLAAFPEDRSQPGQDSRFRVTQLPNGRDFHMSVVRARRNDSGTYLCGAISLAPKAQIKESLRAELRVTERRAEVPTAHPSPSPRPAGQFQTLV

| Binder | kon [1] | t½ [2] |
| --- | --- | --- |
| H4xH9120P2 (antibody, V domains shown, human IgG4 Fc with 2 or more amino acid changes as in US20100331527 (H4xH prefix)) VH: QVQLVQSGAEVKRPGASVKVSCKASGYTFTSFYMYWVRQAPGQGLEWMGIINPSDGSTSNAQKFQGRVTMTRDTSTSTVYMELSSLRSEDTAVYYCARRVAGDIFDIWGQGTMVTVSS VL: not shown | 68600 M⁻¹ s⁻¹ |  |
| H2aM7794N (antibody, V domains shown, human variable regions with mouse IgG2a Fc (H2aM prefix); also called H2M7794N) VH: QLQLQESGPDLVKPSDTLSLTCTVSDDSISSTTYYWAWIRQPPGKGLEWIGSMSYNGNNYYNPSLKSRVAISAGTSQKQFSLKLTSVTAADTAVYHCARHLGYNGNWYPFDFWGQGILVTVSS VL: not shown |  | 1.08 h |
